The text below walks through data of patent publication US10293018B2, “Fusion protein for treating rejection reaction in transplantation” (Immunwork Inc., priority 2015, dated 2019).

For assay [1], the system named is mTOR/p70S6K signaling pathway. Kind of assay: Western blot analysis of mTOR/p70S6K signaling pathway in Jurkat T cells. The assay is classed as cell-based, human. Conditions: 100 nM compound with 10 ng/ml IL2, 24 hours, without changes in total p70S6K, FIG. 20A. The protocol: To examine the biological activities of these compounds, western blot analysis of mTOR/p70S6K signaling pathway and T-cell proliferation assay were performed with human Jurkat T cells. T-cell viability and proliferation were assessed using alamarBlue® cell viability reagent (Invitrogen).
For the western blot analysis of mTOR/p70S6K signaling pathway, briefly, Jurkat T cell were seeded into 6-cm cell culture dish in RPM11640 medium containing 10% fetal bovine serum.
Insoluble material was collected by centrifugation at 14,000×g for 20 minutes at 4° C. The cell lysate samples were separated on 10% SDS-PAGE gels and transferred to a PVDF membrane (Millipore). The membrane blots were blocked in PBS containing 5% BSA for 1 hour at room temperature, and incubated with primary antibodies, anti-phospho-p70S6K antibody (Cell Signaling Technology, Danvers, USA) and anti-p70S6K antibody (Cell Signaling Technology), overnight at 4° C. […] Then the membranes were washed three times with TBST, and immunoreacted bands were detected with ECL™ western blotting detection reagents (Millipore) and exposed on Fujifilm (Tokyo, Japan). Relative quantification of ECL signals on X-ray films were analyzed by using Image J (NIH, Bethesda, Md., USA).
(In general: In western blotting, separated proteins are transferred to a membrane and probed.)

In another assay the target is T1, PD1-IgG1.Fc (Homo sapiens, UniProt Q15116).
T1 construct: made in house; host or cells: Expi293F
Kind of assay: ELISA of coated recombinant PD-L1 binding PD1-IgG1.Fc. The settings on record: PD-L1 coated at 50 μg/ml, PD1-IgG1.Fc at 50 μg/ml; FIG. 14D. The protocol:
Binding activity of recombinant PD-L1 protein was assayed with ELISA using a 96-well plate coated with recombinant PD-L1 protein in 50 μg/ml concentration, 100 μl per well. After the excess PD-L1 was washed off and the solid phase blocked, 100 μl per well of PD1-IgG1.Fc at 50 μg/ml was added. The bound PD1-IgG1.Fc was determined by HRP-conjugated goat anti-human IgG.Fc. 50 μl of TMB substrate was added for color development. The reaction was stopped by 50 μl of 1M HCl. Absorbance at 450 nm was measured with a plate reader. Each bar represents the mean OD450 value of duplicate samples.

For the next assay, the system named is scFv specific for CTLA-4. Put plainly: Western blot of recombinant CTLA-4 detected with scFv specific for CTLA-4. The assay is classed as binding. Conditions: scFv 1 μg/ml; FIG. 14C. The protocol: Recombinant CTLA-4 protein was analyzed and detected using western blotting. Briefly, 50 μl of the purified CTLA-4 protein was electrophoresed on the 12% SDS-PAGE gel (lane 2) and electroblotted over to a PDVF membrane. The protein (CTLA-4)-IgG1Fc-(scFv α HLA-A1) was used as a positive control (lane 1). After blocking with 5% BSA in TBST at room temperature for 1 hour, the diluted scFv specific for CTLA-4 (1 μg/ml) was added and incubated with the membrane overnight at 4° C. with gentle shaking. The membrane was rinsed and washed 3 times with TBST. The diluted HRP-conjugated protein L (1:5000) was added and incubated with the membrane at room temperature for 1 hour, and the rinse and wash cycle was repeated with TBST for 3 times. The membrane was then incubated with HRP substrate solution for 20 minutes before being exposed to the photographic film.

Assay [2] addresses T2, human HLA-A1 (Homo sapiens, UniProt P04439).
T2 construct: made in house; host or cells: Expi293F
Put plainly: ELISA of purified scFv of mAb specific for human HLA-A1. It is filed as binding. The settings on record: scFv specific for TNF-α as negative control; FIG. 15C. The protocol: The expression of the constructed gene in Expi293F cells was performed as in preceding Examples. Culture supernatants were harvested and scFv proteins in the media were purified using Protein L affinity chromatography. FIGS. 15A, 15B and 15C show 12% SDS-PAGE, mass spectrometric and ELISA analyses of purified scFv of mAb specific for human HLA-A1. […] The scFv specific for TNF-α was used as a negative control, which was prepared as described in PCT patent application publication No. WO/2016112870.
Background: ELISA stands for enzyme-linked immunosorbent assay.

Assay [3] has as its target T2, human HLA-A1. Put plainly: ELISA of tetrazine-conjugated scFv specific for human HLA-A1. The assay is classed as binding. The settings on record: unmodified scFv as positive control; FIG. 17B. From the text: The purity of tetrazine-conjugated scFv specific for human HLA-A1 was identified through Coomassie blue staining of 12% SDS-PAGE. FIGS. 17A and 17B show, respectively, the mass spectrometric and ELISA analysis of tetrazine-conjugated scFv specific for human HLA-A1, in which unmodified scFv specific for human HLA-A1 was used as a positive control.

The target of the next assay is T3, human HLA-A2 (Homo sapiens, UniProt P04439).
T3 construct: made in house; host or cells: Expi293F
Put plainly: Single colony ELISA of phage-displayed scFvs specific for human HLA-A2. Conditions: secreted scFv in supernatant; HLA-A2 0.5 μg per well; FIG. 16B. The assay is classed as binding. The protocol: E. coli strain ER2738 infected with single-clonal phages each harboring a selected scFv gene in its phagemid was grown in the mid-log phase in 2YT broth (16 g/l tryptone, 10 g/l yeast extract, 5 g/l NaCl, pH 7.0) with 100 μg/ml ampicillin in deep well at 37° C. with shaking. After the broth reached an OD600 of 1.0, IPTG was added to a final concentration of 1 μg/ml. The plates were incubated at 37° C. overnight under rigorously shaking. Thereafter, the plates were centrifuged at 4,000 g for 15 minutes at 4° C.
For soluble scFv binding test, ELISA was carried out. Briefly, 96-well Maxisorp 96-well plate (Nunc) was coated with human HLA-A2 (0.5 μg/100 μl PBS per well) or two negative control antigens, human heat shock protein 70 (Hsp 70) and RSV-IgG1.Fc fusion protein (prepared by our laboratory), for 18 hours with shaking at 4° C. After being treated with 300 μl of blocking buffer for 1 hour, 100 μl of secreted scFv in the supernatant was mixed with 100 μl of blocking buffer and then added to the coated plate for another 1 hour. Goat anti-E-tag antibody (conjugated with HRP, 1:4000, Cat. No. AB19400, Abcam) was added to the plate for 1 hour. TMB substrate (50 μl per well) was added to the wells and the absorbance at 450 nm was measured after reactions were stopped by adding 1N HCl (50 μl per well).

T1 sequence (Q15116 with tags, fused parts or gaps): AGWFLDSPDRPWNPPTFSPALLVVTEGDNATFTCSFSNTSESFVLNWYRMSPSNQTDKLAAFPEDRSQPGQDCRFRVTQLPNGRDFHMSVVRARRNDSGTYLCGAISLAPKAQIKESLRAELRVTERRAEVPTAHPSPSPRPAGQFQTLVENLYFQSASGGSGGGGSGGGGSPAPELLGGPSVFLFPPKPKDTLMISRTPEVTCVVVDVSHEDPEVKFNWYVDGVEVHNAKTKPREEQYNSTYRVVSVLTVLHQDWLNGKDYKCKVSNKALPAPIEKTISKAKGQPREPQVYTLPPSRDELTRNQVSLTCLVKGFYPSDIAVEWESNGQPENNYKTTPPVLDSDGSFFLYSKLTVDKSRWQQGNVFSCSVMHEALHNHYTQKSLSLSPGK

With `COC1CC2CCC(C)C(O)(O2)C(=O)C(=O)N2CCCCC2C(=O)OC(C(C)CC2CCC(OC(=O)CN)C(OC)C2)CC(=O)C(C)C=C(C)C(O)C(OC)C(=O)C(C)CC(C)C=CC=CC=C1C` (stereo not shown) [sirolimus-Gly], the “phosphorylated level of p70S6K” value in assay [1] is “decreased”.

For `COC1CC2CCC(C)C(O)(O2)C(=O)C(=O)N2CCCCC2C(=O)OC(C(C)CC2CCC(OC(=O)CNC(=O)CN)C(OC)C2)CC(=O)C(C)C=C(C)C(O)C(OC)C(=O)C(C)CC(C)C=CC=CC=C1C` (stereo not shown) [sirolimus-diGly], the “phosphorylated level of p70S6K” value in assay [1] was “decreased”.

Consider “recombinant human PD-L1: recombinant human PD-L1, SEQ ID NO: 31, with GGGGSGGGGS linker and terminal cysteine at the C-terminus”, for which the “binding to recombinant PD1-IgG1.Fc (ELISA)” value with PD1-IgG1.Fc is listed as “specifically bound”.

As for “recombinant human CTLA-4: recombinant human CTLA-4, SEQ ID NO: 30, with GGGGSGGGGS linker and terminal cysteine at the C-terminus”, the “binding by the scFv specific for CTLA-4 (western blot)” value with scFv specific for CTLA-4 is “specifically bound”.

B1: scFv of mAb specific for human HLA-A1: scFv with VL and VH from monoclonal antibody 4-35-7, SEQ ID NO: 32 (protein)
scFv: DIQMTQSPSTLSASVGDRVTITCRASQSISNWLAWYQQKPGKAPNLLIYKASSLESGVPSRFSGSGSGTEFTLTISSLQPDDFATYYCQQYHDYSVTFGAGTKVEIKRGGGGSGGGGSGGGGSEVQLLESGGGLVQPGGSQRLSCVASGVPFSNYAMNWVRQAPGKGLEWVSSISGGGDRTFYADSVKGRFTISRDNSKNTLYLQMNSLGAGDTAVYYCAKTYYDFWSGYSRHLNSWGQGSLVTVSSGGGGSGGGGSC
modifications: anti-HLA-A1 4-35-7 scFv
With B1, the “binding to human HLA-A1 (ELISA)” value with human HLA-A1 [2] was “bound specifically”.

B2: tetrazine-conjugated scFv specific for human HLA-A1: scFv specific for human HLA-A1 (SEQ ID NO: 32) conjugated at C-terminal cysteine with Mal-PEG4-tetrazine (conjugate)
scFv: DIQMTQSPSTLSASVGDRVTITCRASQSISNWLAWYQQKPGKAPNLLIYKASSLESGVPSRFSGSGSGTEFTLTISSLQPDDFATYYCQQYHDYSVTFGAGTKVEIKRGGGGSGGGGSGGGGSEVQLLESGGGLVQPGGSQRLSCVASGVPFSNYAMNWVRQAPGKGLEWVSSISGGGDRTFYADSVKGRFTISRDNSKNTLYLQMNSLGAGDTAVYYCAKTYYDFWSGYSRHLNSWGQGSLVTVSSGGGGSGGGGSC
modifications: Mal-PEG4-tetrazine at C-terminal cysteine; anti-HLA-A1 4-35-7 scFv
For B2, the “binding to recombinant HLA-A1 (ELISA)” value in the assay with human HLA-A1 [3] is recorded as “bound to recombinant HLA-A1”.

B3: 3E10: phage-displayed scFv clone that binds to human HLA-A2, SEQ ID NO: 34 (protein)
scFv: DIQMTQSPSSLSASVGDRVTITCRASQDVFFFVAWYQQKPGKAPKLLIYGPPGLYSGVPSRFSGSGSGTDFTLTISSLQPEDFATYYCQQYFSFPITFGQGTKVEIKRGGGGSIEGRSGGGGSEVQLVESGGGLVQPGGSLRLSCAASGFTISNGGIHWVRQAPGKGLEWVASIWPSGGYTSYADSVKGRFTISADTSKNTAYLQMNSLRAEDTAVYYCARFGVNYHGIMDYWGQGTLVTVSS
modifications: phage-displayed scFv specific for HLA-A2, 3E10
Take B3: the “OD450 of binding to human HLA-A2” value with human HLA-A2 amounted to 1.3.
